In patent US20250213666A1:

Biological target: Spike protein on SARS-CoV-2 pseudovirus expressing luciferase (COVID-19 Pseudovirus Neutralizing Antibody Assay, Abnova) (SARS-CoV-2) (UniProt P0DTC2)
Assay: cell-based or functional assay

## Intimin-Ty1 nanobody (pIntimin-Ty1), surface displayed on E. coli Nissle 1917 or on its OMVs (VHH)
  Pseudovirus-ACE2 receptor inhibition, OMVs at 22 µg/mL: 30 to 32%
